Strand notation (5' to 3'): a small letter for the sugar, then the base; units joined by * are phosphorothioate-linked, units joined directly phosphodiester-linked; [ ] holds rarer units or linkages, { } end groups; capitals alone tell only the bases. m = 2'-O-methyl; r = 2'-OH (RNA)
Legend:
human TTR sequence = assay: Liver editing in humanized TTR mice dosed with LNP formulations (Table 26); type: in vivo, mouse
human TTR = assay: Serum human TTR ELISA in humanized TTR mice (Table 26); type: in vivo, mouse; details: for Serum TTR(% TSS): Table 26, serum human TTR, LNP Formulation Numbers 6-16, 1 mg/kg (total RNA content)
Protocol: Blood was collected and the serum was isolated as indicated. The total mouse TTR serum levels were determined using a Mouse Prealbumin (Transthyretin) ELISA Kit (Aviva Systems Biology, Cat. OKIA00111); rat TTR serum levels were measured using a rat specific ELISA kit (Aviva Systems Biology catalog number OKIA00159); human TTR serum levels were measured using a human specific ELISA kit (Aviva Systems Biology catalog number OKIA00081); each according to manufacture's protocol. Briefly, sera were serial diluted with kit sample diluent to a final dilution of 10,000-fold, or 5,000-fold when measuring human TTR in mouse sera. 100 ul of the prepared standard curve or diluted serum samples were added to the ELISA plate, incubated for 30 minutes at room temperature then washed 3 times with provided wash buffer. 100 uL of detection antibody was then added to each well and incubated for 20 minutes at room temperature followed by 3 washes. 100 uL of substrate is added then incubated for 10 minutes at room temperature before the addition of 100 uL stop solution. The absorbance of the contents was measured on the Spectramax M5 plate reader with analysis using SoftmaxPro version 7.0 software. Serum TTR levels were quantitated off the standard curve using 4 parameter logistic fit and expressed as ug/mL of serum or percent knockdown relative control (vehicle treated) animals.
The level of human TTR in serum was measured in the mice provided formulation numbers 6-8, 10-13, and 15-16. FIG. 14A is a repeat of FIG. 13 provided for comparison purposes. Knockdown of serum human TTR was detected for each formulation tested, which correlated with the amount of editing detected in liver (See FIG. 14A vs 14B, Table 26).
In another set of experiments, humanized TTR mice were dosed with LNP formulations across a range of doses with guides G000480, G000488, G000489 and G000502. The formulations contained Cas9 mRNA (SEQ ID NO: 1) in a 1:1 ratio by weight to the guide. The LNPs contained Lipid A, Cholesterol, DSPC, and PEG2k-DMG in a 50:38:9:3 molar ratio, respectively, and having a N:P ratio of 6. Dosing was at 1, 0.3, 0.1, or 0.03 mg/kg (n=5/group). The LNPs were prepared using the cross-flow procedure described above and purified and concentrated using PD-10 columns and Amicon centrifugal filter units, respectively. Liver editing results were determined using primers designed to amplify the region of interest for NGS analysis and serum human TTR levels were measured as described above. Results for liver editing are shown in FIG. 26A and serum human TTR levels in FIG. 26B-C.
(§1) In another set of experiments, humanized TTR mice were dosed with LNP formulations across a range of doses with guides G000481, G000482, G000486 and G000499. The formulations contained Cas9 mRNA (SEQ ID NO: 1) in a 1:1 ratio by weight to the guide. […] Dosing was at 1, 0.3, or 0.1 mg/kg (n=5/group). The LNPs were prepared using the cross-flow procedure described above and purified and concentrated using PD-10 columns and Amicon centrifugal filter units, respectively. Liver editing results were determined using primers designed to amplify the region of interest for NGS analysis and serum human TTR levels were measured as described above. Results for liver editing are shown in FIG. 27A and serum human TTR levels in FIG. 27B-C.
as §1, with “guides G000480,” for “guides”, “G000486, G000499” for “G000482, G000486”, “G000502.” for “G000499.”, “1:2” for “1:1”, “Results for liver editing are shown in FIG. 27A and serum human TTR levels in FIG. 27B-C.” left out

[1] = 1, 0.3, 0.1, or 0.03 mg/kg, Cas9 mRNA (SEQ ID NO: 1) 1:1 by weight to guide, FIG. 26A
[2] = 1, 0.3, 0.1, or 0.03 mg/kg, Cas9 mRNA (SEQ ID NO: 1) 1:1 by weight to guide, FIG. 26B-C
[3] = 1, 0.3, or 0.1 mg/kg, Cas9 mRNA (SEQ ID NO: 1) 1:1 by weight to guide, FIG. 27A
[4] = 1, 0.3, or 0.1 mg/kg, Cas9 mRNA (SEQ ID NO: 1) 1:2 by weight to guide, FIG. 28A
[5] = 1, 0.3, or 0.1 mg/kg, Cas9 mRNA (SEQ ID NO: 1) 1:1 by weight to guide, FIG. 27B-C
[6] = 1, 0.3, or 0.1 mg/kg, Cas9 mRNA (SEQ ID NO: 1) 1:2 by weight to guide, FIG. 28B-C

B1: G000489: TTR sgRNA modified sequence, Human, SEQ ID No. 96; guide sequence of CR003344 (nucleic acid)
guide: mU*mU*mU*rGrArCrCrArUrCrArGrArGrGrArCrArCrUrGrUrUrUrUrArGrAmGmCmUmAmGmAmAmAmUmAmGmCrArArGrUrUrArArArArUrArArGrGrCrUrArGrUrCrCrGrUrUrArUrCrAmAmCmUmUmGmAmAmAmAmAmGmUmGmGmCmAmCmCmGmAmGmUmCmGmGmUmGmCmU*mU*mU*mU
- Liver editing, dose response (human TTR sequence; [1]): A dose response for both editing and serum TTR levels was evident
- Serum human TTR levels, dose response (human TTR; [2]): A dose response for both editing and serum TTR levels was evident

B2: G000481: TTR sgRNA modified sequence, Human, SEQ ID No. 88; guide sequence of CR003345 (nucleic acid)
guide: mU*mC*mU*rArGrArArCrUrUrUrGrArCrCrArUrCrArGrGrUrUrUrUrArGrAmGmCmUmAmGmAmAmAmUmAmGmCrArArGrUrUrArArArArUrArArGrGrCrUrArGrUrCrCrGrUrUrArUrCrAmAmCmUmUmGmAmAmAmAmAmGmUmGmGmCmAmCmCmGmAmGmUmCmGmGmUmGmCmU*mU*mU*mU
- Liver editing, dose response (human TTR sequence; [3]): A dose response for both editing and serum TTR levels was evident
- Liver editing, dose response (human TTR sequence; [4]): A dose response for both editing and serum TTR levels was evident
- Serum human TTR levels, dose response (human TTR; [5]): A dose response for both editing and serum TTR levels was evident
- Serum human TTR levels, dose response (human TTR; [6]): A dose response for both editing and serum TTR levels was evident
- Serum TTR(% TSS) (human TTR): 10.52 % TSS

B3: G000482: TTR sgRNA modified sequence, Human, SEQ ID No. 89; guide sequence of CR003365 (nucleic acid)
guide: mU*mG*mU*rArGrArArGrGrGrArUrArUrArCrArArArGrGrUrUrUrUrArGrAmGmCmUmAmGmAmAmAmUmAmGmCrArArGrUrUrArArArArUrArArGrGrCrUrArGrUrCrCrGrUrUrArUrCrAmAmCmUmUmGmAmAmAmAmAmGmUmGmGmCmAmCmCmGmAmGmUmCmGmGmUmGmCmU*mU*mU*mU
- Liver editing, dose response (human TTR sequence; [3]): A dose response for both editing and serum TTR levels was evident
- Serum human TTR levels, dose response (human TTR; [5]): A dose response for both editing and serum TTR levels was evident

B4: G000499: TTR sgRNA modified sequence, Human, SEQ ID No. 106; guide sequence of CR005303 (nucleic acid)
guide: mU*mG*mA*rArUrCrCrArArGrUrGrUrCrCrUrCrUrGrArGrUrUrUrUrArGrAmGmCmUmAmGmAmAmAmUmAmGmCrArArGrUrUrArArArArUrArArGrGrCrUrArGrUrCrCrGrUrUrArUrCrAmAmCmUmUmGmAmAmAmAmAmGmUmGmGmCmAmCmCmGmAmGmUmCmGmGmUmGmCmU*mU*mU*mU
- Liver editing, dose response (human TTR sequence; [3]): A dose response for both editing and serum TTR levels was evident
- Liver editing, dose response (human TTR sequence; [4]): A dose response for both editing and serum TTR levels was evident
- Serum human TTR levels, dose response (human TTR; [5]): A dose response for both editing and serum TTR levels was evident
- Serum human TTR levels, dose response (human TTR; [6]): A dose response for both editing and serum TTR levels was evident
- Serum TTR(% TSS) (human TTR): 8.39 % TSS

B5: G000502: TTR Cyno specific sgRNA modified sequence, SEQ ID No. 114; guide sequence of CR000689; cross homologous between mouse and cyno (nucleic acid)
guide: mA*mC*mA*rCrArArArUrArCrCrArGrUrCrCrArGrCrGrGrUrUrUrUrArGrAmGmCmUmAmGmAmAmAmUmAmGmCrArArGrUrUrArArArArUrArArGrGrCrUrArGrUrCrCrGrUrUrArUrCrAmAmCmUmUmGmAmAmAmAmAmGmUmGmGmCmAmCmCmGmAmGmUmCmGmGmUmGmCmU*mU*mU*mU
- Liver editing, dose response (human TTR sequence; [1]): A dose response for both editing and serum TTR levels was evident
- Liver editing, dose response (human TTR sequence; [4]): A dose response for both editing and serum TTR levels was evident
- Serum human TTR levels, dose response (human TTR; [2]): A dose response for both editing and serum TTR levels was evident
- Serum human TTR levels, dose response (human TTR; [6]): A dose response for both editing and serum TTR levels was evident

B6: G000480: TTR sgRNA modified sequence, Human, SEQ ID No. 87; guide sequence of CR003353 (nucleic acid)
guide: mA*mA*mA*rGrGrCrUrGrCrUrGrArUrGrArCrArCrCrUrGrUrUrUrUrArGrAmGmCmUmAmGmAmAmAmUmAmGmCrArArGrUrUrArArArArUrArArGrGrCrUrArGrUrCrCrGrUrUrArUrCrAmAmCmUmUmGmAmAmAmAmAmGmUmGmGmCmAmCmCmGmAmGmUmCmGmGmUmGmCmU*mU*mU*mU
- Liver editing, dose response (human TTR sequence; [1]): A dose response for both editing and serum TTR levels was evident
- Liver editing, dose response (human TTR sequence; [4]): A dose response for both editing and serum TTR levels was evident
- Serum human TTR levels, dose response (human TTR; [2]): A dose response for both editing and serum TTR levels was evident
- Serum human TTR levels, dose response (human TTR; [6]): A dose response for both editing and serum TTR levels was evident

B7: G000488: TTR sgRNA modified sequence, Human, SEQ ID No. 95; guide sequence of CR003346 (nucleic acid)
guide: mA*mA*mA*rGrUrUrCrUrArGrArUrGrCrUrGrUrCrCrGrGrUrUrUrUrArGrAmGmCmUmAmGmAmAmAmUmAmGmCrArArGrUrUrArArArArUrArArGrGrCrUrArGrUrCrCrGrUrUrArUrCrAmAmCmUmUmGmAmAmAmAmAmGmUmGmGmCmAmCmCmGmAmGmUmCmGmGmUmGmCmU*mU*mU*mU
- Liver editing, dose response (human TTR sequence; [1]): A dose response for both editing and serum TTR levels was evident
- Serum human TTR levels, dose response (human TTR; [2]): A dose response for both editing and serum TTR levels was evident

B8: G000486: TTR sgRNA modified sequence, Human, SEQ ID No. 93; guide sequence of CR003339 (nucleic acid)
guide: mA*mC*mA*rCrArArArUrArCrCrArGrUrCrCrArGrCrArGrUrUrUrUrArGrAmGmCmUmAmGmAmAmAmUmAmGmCrArArGrUrUrArArArArUrArArGrGrCrUrArGrUrCrCrGrUrUrArUrCrAmAmCmUmUmGmAmAmAmAmAmGmUmGmGmCmAmCmCmGmAmGmUmCmGmGmUmGmCmU*mU*mU*mU
- Liver editing, dose response (human TTR sequence; [3]): A dose response for both editing and serum TTR levels was evident
- Liver editing, dose response (human TTR sequence; [4]): A dose response for both editing and serum TTR levels was evident
- Serum human TTR levels, dose response (human TTR; [5]): A dose response for both editing and serum TTR levels was evident
- Serum human TTR levels, dose response (human TTR; [6]): A dose response for both editing and serum TTR levels was evident

— patent US11795460B2, “Compositions and methods for TTR gene editing and treating ATTR amyloidosis” (Intellia Therapeutics, Inc., priority 2017, dated 2023)
